Laboratory results published in patent US20210284690A1.

Columns and labels:
[1] = target: extracellular part of human CD40L (aa 108-261 recombinantly produced in E. coli) (human) (UniProt P29965); assay: BLI (OctetRED96), Fab captured on anti-human Fab-CH1 (FAB2G) sensors, soluble CD40L 2.5-80 nM, 1:1 global fit; purchased
IL-1β = assay: cell-based or functional assay

extracellular part of human CD40L (aa 108-261 recombinantly produced in E. coli) (human), sequence (P29965 108-261 limits assumed): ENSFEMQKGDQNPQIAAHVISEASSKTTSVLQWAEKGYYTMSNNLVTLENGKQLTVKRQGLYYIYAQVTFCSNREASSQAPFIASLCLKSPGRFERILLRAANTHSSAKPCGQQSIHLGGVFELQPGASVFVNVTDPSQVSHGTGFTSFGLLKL

Kd [1] [nM]	NHDF IC50 (pM); inhibition of IL-1β induced IL-6 release from NHDF cells (IL-1β) [pM]	Substance
< 0.3	–	Dapirolizumab Fab
–	70	Met-huIL-1Ra (Anakinra) (from UniProt P18510 26-177) (ligand)
–	900	PEG(L30kDa)-Met-huIL-1Ra (from UniProt P18510 26-177) (ligand)
